Read-outs that look alike come from different tables or passages of the source.
Legend:
[1] = molecular target: T1, human FcRn (soluble human FcRn complexed with β2-microglobulin) (human, UniProt P61769 21-119, limits assumed); assay: SPR, antibody captured by Protein L, human FcRn as analyte, pH 7.0, 25 C
T1 construct: also called hFcRn

[2] = molecular target: T2, mouse FcγRIV (mouse, UniProt A0A0B4J1G0 21-203); assay: SPR, antibody captured by Protein L, mouse FcγR as analyte, pH 7.4, 25 C
T2 construct: bought; also called mFcgRIV; mFcgR IV; the vendor's purification tag not given
T2 sequence: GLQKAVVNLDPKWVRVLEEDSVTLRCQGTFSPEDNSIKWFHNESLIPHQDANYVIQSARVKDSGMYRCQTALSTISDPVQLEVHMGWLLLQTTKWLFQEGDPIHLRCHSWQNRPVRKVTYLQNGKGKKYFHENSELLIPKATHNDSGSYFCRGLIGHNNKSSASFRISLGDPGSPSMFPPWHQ

[3] = molecular target: T3, mouse FcγRIIb (mouse, UniProt P08101 30-207, limits assumed); assay: as above
T3 construct: bought; also called mFcgRIIb; mFcgR IIb
T3 sequence (looked up): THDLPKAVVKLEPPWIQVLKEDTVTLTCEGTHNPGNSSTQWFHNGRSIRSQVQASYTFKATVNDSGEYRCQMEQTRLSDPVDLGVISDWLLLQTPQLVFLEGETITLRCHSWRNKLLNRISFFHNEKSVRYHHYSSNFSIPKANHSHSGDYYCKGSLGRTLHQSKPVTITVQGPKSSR

[4] = molecular target: T4, mouse FcγRIII (mouse, UniProt P08508 31-215); assay: as above
T4 construct: bought; also called mFcgRIII; mFcgR III
T4 sequence (looked up): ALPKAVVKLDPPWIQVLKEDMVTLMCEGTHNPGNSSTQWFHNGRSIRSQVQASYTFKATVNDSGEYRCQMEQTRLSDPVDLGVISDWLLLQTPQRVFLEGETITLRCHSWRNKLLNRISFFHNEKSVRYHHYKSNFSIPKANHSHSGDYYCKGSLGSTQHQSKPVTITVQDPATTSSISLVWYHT

[5] = molecular target: T1, human FcRn (soluble human FcRn …); assay: SPR, antibody captured by Protein L, human FcRn as analyte, pH 7.0, 25 C; remark: listed apart in the source
[6] = molecular target: T5, human FcγRIa (human, UniProt P12314 16-292, limits assumed); assay: SPR, antibody captured by Protein L, human FcγR as analyte, pH 7.4, 25 C
T5 construct: also called hFcgRIa; hFcgRI

[7] = molecular target: T6, mouse FcγRI (mouse, UniProt P26151 25-297); assay: SPR, antibody captured by Protein L, mouse FcγR as analyte, pH 7.4, 25 C
T6 construct: bought; also called mFcgRI; mFcgR 1
T6 sequence (looked up): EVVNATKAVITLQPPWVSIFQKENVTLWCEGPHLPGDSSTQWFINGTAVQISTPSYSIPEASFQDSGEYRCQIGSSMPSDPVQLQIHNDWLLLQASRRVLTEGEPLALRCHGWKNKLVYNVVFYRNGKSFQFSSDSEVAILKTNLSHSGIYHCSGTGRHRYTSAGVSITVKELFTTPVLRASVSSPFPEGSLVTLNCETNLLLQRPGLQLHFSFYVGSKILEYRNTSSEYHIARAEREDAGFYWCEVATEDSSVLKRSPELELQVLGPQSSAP

[8] = molecular target: T1, human FcRn (soluble human FcRn …); assay: SPR, antibody captured by Protein L, human FcRn as analyte, pH 7.0, 25 C; remark: listed apart in the source
[9] = molecular target: T7, human FcγRIIb (human, UniProt P31994 43-217, limits assumed); assay: SPR, antibody captured by Protein L, human FcγR as analyte, pH 7.4, 25 C
T7 construct: also called hFcgRIIb; FcγIIB
T7 sequence: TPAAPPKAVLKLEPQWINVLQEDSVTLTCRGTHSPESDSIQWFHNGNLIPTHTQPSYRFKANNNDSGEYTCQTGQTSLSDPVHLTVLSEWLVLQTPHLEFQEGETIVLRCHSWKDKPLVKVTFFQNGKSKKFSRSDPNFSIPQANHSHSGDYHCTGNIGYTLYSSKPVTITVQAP

[10] = molecular target: T5, human FcγRIa; assay: as above; remark: listed apart in the source
[11] = molecular target: T8, human FcγRIIa(H) (human, UniProt P12318 36-217); assay: SPR, pH 7.4, antibody captured by Protein L
T8 construct: also called FcgRIIaH; hFcgRIIa(H)
T8 sequence: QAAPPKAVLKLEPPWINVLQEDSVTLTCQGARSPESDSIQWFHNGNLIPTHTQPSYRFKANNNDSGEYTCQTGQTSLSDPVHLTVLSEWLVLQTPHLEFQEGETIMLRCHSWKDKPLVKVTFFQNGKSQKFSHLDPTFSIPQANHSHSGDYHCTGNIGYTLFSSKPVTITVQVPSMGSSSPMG

[12] = molecular target: T9, human FcγRIIa(R) (human, UniProt P12318 36-217); assay: SPR, pH 7.4, antibody captured by Protein L
T9 construct: also called FcgRIIaR; hFcgRIIa(R)
T9 chain: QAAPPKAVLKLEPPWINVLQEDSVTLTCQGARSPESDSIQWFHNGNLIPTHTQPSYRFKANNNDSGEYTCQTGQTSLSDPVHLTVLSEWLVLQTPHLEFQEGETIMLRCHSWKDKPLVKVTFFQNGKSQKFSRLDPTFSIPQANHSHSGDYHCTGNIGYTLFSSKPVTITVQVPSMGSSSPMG

[13] = molecular target: T10, human FcγRIa (human, UniProt P12314 16-292, limits assumed); assay: SPR, pH 7.4, antibody captured by Protein L
T10 construct: also called FcgRIa; hFcgRIa

[14] = molecular target: T11, human FcγRIIb (human, UniProt P31994 43-217, limits assumed); assay: SPR, pH 7.4, antibody captured by Protein L
T11 construct: also called FcgRIIb; hFcgRIIb
T11 sequence: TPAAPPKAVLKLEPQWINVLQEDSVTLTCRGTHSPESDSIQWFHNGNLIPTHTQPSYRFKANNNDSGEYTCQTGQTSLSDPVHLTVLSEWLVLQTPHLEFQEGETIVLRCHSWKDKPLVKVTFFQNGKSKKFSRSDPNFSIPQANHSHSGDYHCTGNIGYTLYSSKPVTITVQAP

[15] = molecular target: T12, human FcγRIIIa(V) (human, UniProt P08637 17-208, limits assumed); assay: SPR, pH 7.4, antibody captured by Protein L
T12 construct: also called hFcgRIIIa(V); FcγRIIIa allotype V158
T12 sequence (P08637 other isoform, or with tags, fused parts or gaps limits assumed): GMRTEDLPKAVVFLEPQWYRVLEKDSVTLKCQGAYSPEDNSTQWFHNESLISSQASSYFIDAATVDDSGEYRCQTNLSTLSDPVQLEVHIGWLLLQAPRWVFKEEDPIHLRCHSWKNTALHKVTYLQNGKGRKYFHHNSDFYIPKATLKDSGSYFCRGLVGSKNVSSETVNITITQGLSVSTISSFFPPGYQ

[16] = molecular target: T13, human FcRn (complex with human β2-microglobulin) (human, UniProt P61769 21-119, limits assumed); assay: SPR, pH 7.0, antibody captured by Protein L, hFcRn analyte
T13 construct: soluble human FcRn complexed with β2-microglobulin was used; also called hFcRn
T13 sequence (chain, as listed by the source limits assumed, chain 1 of 2): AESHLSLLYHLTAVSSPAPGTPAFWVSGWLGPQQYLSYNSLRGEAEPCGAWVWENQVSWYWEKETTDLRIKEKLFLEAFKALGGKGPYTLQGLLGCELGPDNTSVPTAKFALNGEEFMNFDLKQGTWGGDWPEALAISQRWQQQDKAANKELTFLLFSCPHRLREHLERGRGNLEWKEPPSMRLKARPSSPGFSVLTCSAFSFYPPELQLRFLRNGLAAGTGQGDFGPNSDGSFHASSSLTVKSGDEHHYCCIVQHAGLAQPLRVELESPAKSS
T13 sequence (P61769 21-119 limits assumed, chain 2 of 2): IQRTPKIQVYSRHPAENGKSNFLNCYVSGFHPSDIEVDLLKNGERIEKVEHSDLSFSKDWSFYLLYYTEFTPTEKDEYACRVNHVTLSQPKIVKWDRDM

T1 sequence (chain, as listed by the source limits assumed, chain 1 of 2): as the sequence (chain, as listed by the source limits assumed, chain 1 of 2) above
T1 sequence (P61769 21-119 limits assumed, chain 2 of 2): as the sequence (P61769 21-119 limits assumed, chain 2 of 2) above

Row | Binder | BINDING AMOUNT (RU) [2] | BINDING AMOUNT (RU) [3] | BINDING AMOUNT (RU) [4] | Kd [5] | binding amount [11] | binding amount [12] | binding amount [13] | binding amount [14] | binding amount [15] | Kd [16] | also measured
1 | VH3/L(WT)-IgG1-F140 (VH3-IgG1-F140 heavy chain, L(WT)-CK light chain) (antibody, S239K/M252Y/V308P/N434Y; copies: 2 + 2) heavy: QVQLQESGPGLVKPSETLSLTCAVSGHSISHDHAWSWVRQPPGEGLEWIGFISYSGITNYNPSLQGRVTISRDNSKNTLYLQMNSLRAEDTAVYYCARSLARTTAMDYWGEGTLVTVSSASTKGPSVFPLAPSSKSTSGGTAALGCLVKDYFPEPVTVSWNSGALTSGVHTFPAVLQSSGLYSLSSVVTVPSSSLGTQTYICNVNHKPSNTKVDKKVEPKSCDKTHTCPPCPAPELLGGPKVFLFPPKPKDTLYISRTPEVTCVVVDVSHEDPEVKFNWYVDGVEVHNAKTKPREEQYNSTYRVVSVLTPLHQDWLNGKEYKCKVSNKALPAPIEKTISKAKGQPREPQVYTLPPSRDELTKNQVSLTCLVKGFYPSDIAVEWESNGQPENNYKTTPPVLDSDGSFFLYSKLTVDKSRWQQGNVFSCSVMHEALHYHYTQKSLSLSP light: not shown | 108 RU | -1.8 RU | 46.6 RU | 36 nM | – | – | – | – | – | – | Kd [1]: 36 nM; BINDING AMOUNT (RU) [6]: 335 RU
2 | antibody with VH3-IgG1-F157 heavy chain and L(WT)-CK light chain (antibody, P257A/V308P/M428L/N434Y; also called 1gG1-F157; copies: 2 + 2) heavy: QVQLQESGPGLVKPSETLSLTCAVSGHSISHDHAWSWVRQPPGEGLEWIGFISYSGITNYNPSLQGRVTISRDNSKNTLYLQMNSLRAEDTAVYYCARSLARTTAMDYWGEGTLVTVSSASTKGPSVFPLAPSSKSTSGGTAALGCLVKDYFPEPVTVSWNSGALTSGVHTFPAVLQSSGLYSLSSVVTVPSSSLGTQTYICNVNHKPSNTKVDKKVEPKSCDKTHTCPPCPAPELLGGPSVFLFPPKPKDTLMISRTAEVTCVVVDVSHEDPEVKFNWYVDGVEVHNAKTKPREEQYNSTYRVVSVLTPLHQDWLNGKEYKCKVSNKALPAPIEKTISKAKGQPREPQVYTLPPSRDELTKNQVSLTCLVKGFYPSDIAVEWESNGQPENNYKTTPPVLDSDGSFFLYSKLTVDKSRWQQGNVFSCSVLHEALHYHYTQKSLSLSP light: not shown | 243 RU | 129 RU | 276 RU | 150 nM | – | – | – | – | – | – | BINDING AMOUNT (RU) [7]: 315 RU
3 | VH3/L(WT)-IgG1-F699 (antibody, name in EU numbering, copies: 2 + 2) heavy: QVQLQESGPGLVKPSETLSLTCAVSGHSISHDHAWSWVRQPPGEGLEWIGFISYSGITNYNPSLQGRVTISRDNSKNTLYLQMNSLRAEDTAVYYCARSLARTTAMDYWGEGTLVTVSSASTKGPSVFPLAPSSKSTSGGTAALGCLVKDYFPEPVTVSWNSGALTSGVHTFPAVLQSSGLYSLSSVVTVPSSSLGTQTYICNVNHKPSNTKVDKKVEPKSCDKTHTCPPCPAPELLGGPKVFLFPPKPKDTLYISRTPEVTCVVVDVSHEDPEVKFNWYVDGVEVHEAKTKPREEQYNSTYRVVSVLQVLHADWLNGKEYKCKVSNKALPAPIEKTISKAKGQPREPQVYTLPPSRDELTKNQVSLTCLVKGFYPSDIAVEWESNGQPENNYKTTPPVLDSDGSFFLYSKLTVDKSRWQQGNVFSCSVMHEALHYHYTQKSLSLSP light: not shown | – | – | – | – | – | – | – | – | – | – | Kd [8]: 23 nM; BINDING AMOUNT (RU) [9]: -0.3 RU; BINDING AMOUNT (RU) [10]: 164 RU
4 | VH3-IgG2-F939/L(WT)-CK (antibody, A235R/S239K/M252Y/N434Y/Y436V in VH3-IgG2; copies: 2 + 2) heavy: QVQLQESGPGLVKPSETLSLTCAVSGHSISHDHAWSWVRQPPGEGLEWIGFISYSGITNYNPSLQGRVTISRDNSKNTLYLQMNSLRAEDTAVYYCARSLARTTAMDYWGEGTLVTVSSASTKGPSVFPLAPCSRSTSESTAALGCLVKDYFPEPVTVSWNSGALTSGVHTFPAVLQSSGLYSLSSVVTVPSSNFGTQTYTCNVDHKPSNTKVDKTVERKCCVECPPCPAPPVRGPKVFLFPPKPKDTLYISRTPEVTCVVVDVSHEDPEVQFNWYVDGVEVHNAKTKPREEQFNSTFRVVSVLTVVHQDWLNGKEYKCKVSNKGLPAPIEKTISKTKGQPREPQVYTLPPSREEMTKNQVSLTCLVKGFYPSDIAVEWESNGQPENNYKTTPPMLDSDGSFFLYSKLTVDKSRWQQGNVFSCSVMHEALHYHVTQKSLSLSP light: not shown | – | – | – | – | 1 RU | 1 RU | 1.3 RU | 0.4 RU | 1.1 RU | 140 nM | –
5 | VH3-IgG4-F890/L(WT)-CK (antibody, M252Y/N434Y/Y436V in VH3-IgG4; copies: 2 + 2) heavy: QVQLQESGPGLVKPSETLSLTCAVSGHSISHDHAWSWVRQPPGEGLEWIGFISYSGITNYNPSLQGRVTISRDNSKNTLYLQMNSLRAEDTAVYYCARSLARTTAMDYWGEGTLVTVSSASTKGPSVFPLAPCSRSTSESTAALGCLVKDYFPEPVTVSWNSGALTSGVHTFPAVLQSSGLYSLSSVVTVPSSSLGTKTYTCNVDHKPSNTKVDKRVESKYGPPCPPCPAPEFLGGPSVFLFPPKPKDTLYISRTPEVTCVVVDVSQEDPEVQFNWYVDGVEVHNAKTKPREEQFNSTYRVVSVLTVLHQDWLNGKEYKCKVSNKGLPSSIEKTISKAKGQPREPQVYTLPPSQEEMTKNQVSLTCLVKGFYPSDIAVEWESNGQPENNYKTTPPVLDSDGSFFLYSRLTVDKSRWQEGNVFSCSVMHEALHYHVTQKSLSLSL light: not shown | – | – | – | – | 37.5 RU | 92.8 RU | 367 RU | 71.8 RU | 15.5 RU | 140 nM | –
6 | VH3-IgG4-F939/L(WT)-CK (antibody, L235R/S239K/M252Y/N434Y/Y436V in VH3-IgG4; copies: 2 + 2) heavy: QVQLQESGPGLVKPSETLSLTCAVSGHSISHDHAWSWVRQPPGEGLEWIGFISYSGITNYNPSLQGRVTISRDNSKNTLYLQMNSLRAEDTAVYYCARSLARTTAMDYWGEGTLVTVSSASTKGPSVFPLAPCSRSTSESTAALGCLVKDYFPEPVTVSWNSGALTSGVHTFPAVLQSSGLYSLSSVVTVPSSSLGTKTYTCNVDHKPSNTKVDKRVESKYGPPCPPCPAPEFRGGPKVFLFPPKPKDTLYISRTPEVTCVVVDVSQEDPEVQFNWYVDGVEVHNAKTKPREEQFNSTYRVVSVLTVLHQDWLNGKEYKCKVSNKGLPSSIEKTISKAKGQPREPQVYTLPPSQEEMTKNQVSLTCLVKGFYPSDIAVEWESNGQPENNYKTTPPVLDSDGSFFLYSRLTVDKSRWQEGNVFSCSVMHEALHYHVTQKSLSLSL light: not shown | – | – | – | – | -0.7 RU | -0.2 RU | 1.2 RU | 0.4 RU | -0.5 RU | 110 nM | –

Source: patent US20200199241A1 (Chugai, published 2020)
